# Experimental data as given in US20110055976.
# Test system: SUMO1-trypsinogen fusion, chloroplast-targeted, extracted from N. benthamiana leaves and refolded
# Sequence (chain, as listed by the source): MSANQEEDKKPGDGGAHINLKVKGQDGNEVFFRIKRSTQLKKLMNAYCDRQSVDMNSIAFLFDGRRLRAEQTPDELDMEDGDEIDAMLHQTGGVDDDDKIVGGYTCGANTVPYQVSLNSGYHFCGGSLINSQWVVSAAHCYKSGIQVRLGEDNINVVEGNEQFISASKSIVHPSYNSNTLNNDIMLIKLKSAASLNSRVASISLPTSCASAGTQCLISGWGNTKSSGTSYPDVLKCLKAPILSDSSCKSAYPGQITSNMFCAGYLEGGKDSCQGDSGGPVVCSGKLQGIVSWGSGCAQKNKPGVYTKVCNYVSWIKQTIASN
substance,measurement,value
"enterokinase (Sigma, cat. no. E0885)",kinetics of BAPNA cleavage (absorption at 405 nm) after enterokinase treatment of the folding reaction,refolded and enterokinase-treated SUMO1-trypsinogen fusion produces active trypsin capable of digesting the substrate BAPNA
